Experimental data taken from publication doi:10.1101/270363 (bioRxiv, 2018).

molecular target: F-actin (filamentous actin) (rabbit, UniProt P68135 1-377); experiment: co-sedimentation

Binder	binding result
CC-WH2 fragment of nPIST (1st - 267th aa) (domain or fragment) MSAGGPCPAGAGGGPGGSSCPVGVSPGGVSMFRWLEVLEKEFDKAFVDVDLLLGEIDPDQADITYEGRQKMTSLSSCFAQLCHKAQTVSQINHKLEAQLVDLRSELTETQAEKVVLEKEVHEQLLQLHSTQLQLHAKTGQSVDSGAIKAKLSVHSVEDLERELEANKTEKVKEARLEAEVKLLRKENEALRRHIAVLQAEVYGARLAAKYLDKELAGRVQQIQLLGRDMKGPAHDKLWNQLEAEIHLHRHKTVIRACRGRNDLKRPM	binds
CC1 fragment of nPIST (1st - 138th aa) (domain or fragment) MSAGGPCPAGAGGGPGGSSCPVGVSPGGVSMFRWLEVLEKEFDKAFVDVDLLLGEIDPDQADITYEGRQKMTSLSSCFAQLCHKAQTVSQINHKLEAQLVDLRSELTETQAEKVVLEKEVHEQLLQLHSTQLQLHAKT	binds
WH2 fragment of nPIST (200th - 289th aa) (domain or fragment) EVYGARLAAKYLDKELAGRVQQIQLLGRDMKGPAHDKLWNQLEAEIHLHRHKTVIRACRGRNDLKRPMQAPPGHDQDSLKKSQGVGPIRK	binds
CC2 fragment of nPIST (140th - 210th aa) (domain or fragment) QSVDSGAIKAKLSVHSVEDLERELEANKTEKVKEARLEAEVKLLRKENEALRRHIAVLQAEVYGARLAAKY	binds
